Laboratory results from paper PMC9634968.

B1: CXCR4: N15A (protein)
parent chain: MSIPLPLLQIYTSDNYTEEMGSGDYDSMKEPCFREENANFNKIFLPTIYSIIFLTGIVGNGLVILVMGYQKKLRSMTDKYRLHLSVADLLFVITLPFWAVDAVANWYFGNFLCKAVHVIYTVNLYSSVLILAFISLDRYLAIVHATNSQRPRKLLAEKVVYVGVWIPALLLTIPDFIFANVSEADDRYICDRFYPNDLWVVVFQFQHIMVGLILPGIVILSCYCIIISKLSHSKGHQKRKALKTTVILILAFFACWLPYYIGISIDSFILLEIIKQGCEFENTVHKWISITEALAFFHCCLNPILYAFLGAKFKTSAQHALTSVSRGSSLKILSKGKRGGHSSVSTESESSSFHSS
B2: CXCR4: N180A (protein)
parent chain: MSIPLPLLQIYTSDNYTEEMGSGDYDSMKEPCFREENANFNKIFLPTIYSIIFLTGIVGNGLVILVMGYQKKLRSMTDKYRLHLSVADLLFVITLPFWAVDAVANWYFGNFLCKAVHVIYTVNLYSSVLILAFISLDRYLAIVHATNSQRPRKLLAEKVVYVGVWIPALLLTIPDFIFANVSEADDRYICDRFYPNDLWVVVFQFQHIMVGLILPGIVILSCYCIIISKLSHSKGHQKRKALKTTVILILAFFACWLPYYIGISIDSFILLEIIKQGCEFENTVHKWISITEALAFFHCCLNPILYAFLGAKFKTSAQHALTSVSRGSSLKILSKGKRGGHSSVSTESESSSFHSS
B3: CXCR4: N15A/N180A (protein)
parent chain: MSIPLPLLQIYTSDNYTEEMGSGDYDSMKEPCFREENANFNKIFLPTIYSIIFLTGIVGNGLVILVMGYQKKLRSMTDKYRLHLSVADLLFVITLPFWAVDAVANWYFGNFLCKAVHVIYTVNLYSSVLILAFISLDRYLAIVHATNSQRPRKLLAEKVVYVGVWIPALLLTIPDFIFANVSEADDRYICDRFYPNDLWVVVFQFQHIMVGLILPGIVILSCYCIIISKLSHSKGHQKRKALKTTVILILAFFACWLPYYIGISIDSFILLEIIKQGCEFENTVHKWISITEALAFFHCCLNPILYAFLGAKFKTSAQHALTSVSRGSSLKILSKGKRGGHSSVSTESESSSFHSS

Experiment: Western blot after 125 nM CXCL12, 30 min, HEK 293T
Details: glycan lost; control: wild type

Row | Protein | degradation_or_half_life
1 | B1 | increases
2 | B2 | no change
3 | B3 | increases
